Our source for the interaction score values is article PMC10397247.

The target of one assay is T1, 4H3381-AA.
T1 chain: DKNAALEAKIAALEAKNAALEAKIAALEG
Description: two-hybrid library CCmax.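 Also: natural log of median RNA to DNA barcode read ratio; higher means stronger binding.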 The conditions noted are these: mean of both orientations.

The target of another assay is T2, 4H2865-AA.
T2 chain: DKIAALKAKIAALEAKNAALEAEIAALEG
Description: two-hybrid library CCmax.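 Also: natural log of median RNA to DNA barcode read ratio; higher means stronger binding.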

The target in another assay is T3, 4H536-AA.
T3 chain: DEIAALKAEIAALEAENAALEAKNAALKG
Description: two-hybrid library CCmax.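 Also: natural log of median RNA to DNA barcode read ratio; higher means stronger binding.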 The conditions noted are these: mean of both orientations.

The next assay concerns the target T4, 4H629-AA.
T4 chain: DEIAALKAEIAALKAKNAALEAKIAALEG
Description: two-hybrid library CCmax.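 Also: natural log of median RNA to DNA barcode read ratio; higher means stronger binding.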 The conditions noted are these: mean of both orientations.

Another assay has as its target T5, 4H3865-AA.
T5 chain: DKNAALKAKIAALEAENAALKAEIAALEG
Description: two-hybrid library CCmax.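 Also: natural log of median RNA to DNA barcode read ratio; higher means stronger binding.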 The conditions noted are these: mean of both orientations.

The next assay deals with T6, 4H3165-AA.
T6 chain: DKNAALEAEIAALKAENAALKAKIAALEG
Description: two-hybrid library CCmax.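 Also: natural log of median RNA to DNA barcode read ratio; higher means stronger binding.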 The conditions noted are these: mean of both orientations.

The next assay has as its target T7, 4H3395-AA.
T7 chain: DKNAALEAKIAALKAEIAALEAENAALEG
Description: two-hybrid library CCmax. The conditions noted are these: mean of both orientations.

A further assay has as its target T8, 4H485-AA.
T8 chain: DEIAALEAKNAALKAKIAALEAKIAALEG
Description: two-hybrid library CCmax. The conditions noted are these: mean of both orientations.

The target in a further assay is T9, 4H570-AA.
T9 chain: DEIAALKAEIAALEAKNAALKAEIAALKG
Description: two-hybrid library CCmax. The conditions noted are these: mean of both orientations.

In a further assay the target is T10, 4H3009-AA.
T10 chain: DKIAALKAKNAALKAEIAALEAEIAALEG
Description: two-hybrid library CCmax. The conditions noted are these: mean of both orientations.

The target in the next assay is T11, 4H3410-AA.
T11 chain: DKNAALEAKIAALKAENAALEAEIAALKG
Description: two-hybrid library CCmax. The conditions noted are these: mean of both orientations.

The next assay concerns the target T12, 4H797-AA.
T12 chain: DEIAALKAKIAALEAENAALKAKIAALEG
Description: two-hybrid library CCmax. The conditions noted are these: mean of both orientations.

For another assay, the target named is T13, 4H3016-AA.
T13 chain: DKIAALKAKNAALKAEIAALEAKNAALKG
Description: two-hybrid library CCmax. The conditions noted are these: mean of both orientations.

Another assay deals with T14, 4H745-AA.
T14 chain: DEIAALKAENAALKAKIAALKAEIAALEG
Description: two-hybrid library CCmax. The conditions noted are these: mean of both orientations.

The target in another assay is T15, 4H3130-AA.
T15 chain: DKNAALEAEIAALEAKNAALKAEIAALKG
Description: two-hybrid library CCmax. The conditions noted are these: mean of both orientations.

The next assay has as its target T16, 4H909-AA.
T16 chain: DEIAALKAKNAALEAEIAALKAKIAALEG
Description: two-hybrid library CCmax. The conditions noted are these: mean of both orientations.

For another assay, the target named is T17, 4H891-AA.
T17 chain: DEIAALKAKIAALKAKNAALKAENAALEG
Description: two-hybrid library CCmax. The conditions noted are these: mean of both orientations.

The next assay addresses T18, 4H850-AA.
T18 chain: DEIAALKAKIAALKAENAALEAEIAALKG
Description: two-hybrid library CCmax. The conditions noted are these: mean of both orientations.

For another assay, the target named is T19, 4H94-AA.
T19 chain: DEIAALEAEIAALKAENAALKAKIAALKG
Description: two-hybrid library CCmax. The conditions noted are these: mean of both orientations.

A further assay concerns the target T20, 4H3590-AA.
T20 chain: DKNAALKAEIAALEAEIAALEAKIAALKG
Description: two-hybrid library CCmax. The conditions noted are these: mean of both orientations.

A further assay concerns the target T21, 4H930-AA.
T21 chain: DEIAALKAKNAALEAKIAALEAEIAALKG
Description: two-hybrid library CCmax. The conditions noted are these: mean of both orientations.

A further assay has as its target T22, 4H458-AA.
T22 chain: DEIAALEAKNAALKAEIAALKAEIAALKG
Description: two-hybrid library CCmax. The conditions noted are these: mean of both orientations.

The next assay has as its target T23, 4H3120-AA.
T23 chain: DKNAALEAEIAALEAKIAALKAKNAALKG
Description: two-hybrid library CCmax. The conditions noted are these: mean of both orientations.

A further assay deals with T24, 4H710-AA.
T24 chain: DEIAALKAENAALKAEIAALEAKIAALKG
Description: two-hybrid library CCmax. The conditions noted are these: mean of both orientations.

The target of another assay is T25, 4H310-AA.
T25 chain: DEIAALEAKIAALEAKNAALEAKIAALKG
Description: two-hybrid library CCmax. The conditions noted are these: mean of both orientations.

The target of the next assay is T26, 4H3753-AA.
T26 chain: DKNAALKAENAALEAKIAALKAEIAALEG
Description: two-hybrid library CCmax. The conditions noted are these: mean of both orientations.

For the next assay, the target named is T27, 4H3697-AA.
T27 chain: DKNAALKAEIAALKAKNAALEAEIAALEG
Description: two-hybrid library CCmax. The conditions noted are these: mean of both orientations.

Another assay has as its target T28, 4H754-bH.
T28 chain: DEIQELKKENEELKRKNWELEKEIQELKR
Description: two-hybrid library CCNG1.

A further assay deals with T29, 4H967-bH.
T29 chain: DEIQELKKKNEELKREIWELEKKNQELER
Description: two-hybrid library CCNG1.

In a further assay the target is T30, 4H908-bH.
T30 chain: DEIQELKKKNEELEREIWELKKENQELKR
Description: two-hybrid library CCNG1.

For a further assay, the target named is T31, 4H717-bH.
T31 chain: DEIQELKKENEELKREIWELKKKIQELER
Description: two-hybrid library CCNG1.

For the next assay, the target named is T32, 4H797-bH.
T32 chain: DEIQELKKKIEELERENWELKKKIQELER
Description: two-hybrid library CCNG1.

The target of another assay is T33, 4H607-bH.
T33 chain: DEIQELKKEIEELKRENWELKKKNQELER
Description: two-hybrid library CCNG1.

The target of another assay is T34, 4H883-bH.
T34 chain: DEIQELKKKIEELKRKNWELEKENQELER
Description: two-hybrid library CCNG1.

A further assay addresses T35, 4H72-bH.
T35 chain: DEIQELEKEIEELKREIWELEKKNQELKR
Description: two-hybrid library CCNG1.

A further assay has as its target T36, 4H953-bH.
T36 chain: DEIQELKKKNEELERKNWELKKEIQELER
Description: two-hybrid library CCNG1.

The target of a further assay is T37, 4H687-bH.
T37 chain: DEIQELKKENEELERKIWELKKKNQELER
Description: two-hybrid library CCNG1.

For the next assay, the target named is T38, 4H568-bH.
T38 chain: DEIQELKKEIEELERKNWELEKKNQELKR
Description: two-hybrid library CCNG1.

The target in another assay is T39, 4H918-bH.
T39 chain: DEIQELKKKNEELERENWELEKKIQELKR
Description: two-hybrid library CCNG1.

A further assay concerns the target T40, 4H656-AA.
T40 chain: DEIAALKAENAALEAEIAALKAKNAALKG
Description: two-hybrid library CCmax. The conditions noted are these: mean of both orientations.

The target of the next assay is T41, 4H3939-AA.
T41 chain: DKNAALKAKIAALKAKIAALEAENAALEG
Description: two-hybrid library CCmax. The conditions noted are these: mean of both orientations.

Another assay has as its target T42, 4H3628-AA.
T42 chain: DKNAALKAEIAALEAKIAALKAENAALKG
Description: two-hybrid library CCmax. The conditions noted are these: mean of both orientations.

In the next assay the target is T43, 4H971-AA.
T43 chain: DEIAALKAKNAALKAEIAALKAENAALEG
Description: two-hybrid library CCmax. The conditions noted are these: mean of both orientations.

In a further assay the target is T44, 4H391-AA.
T44 chain: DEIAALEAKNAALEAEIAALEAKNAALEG
Description: two-hybrid library CCmax. The conditions noted are these: mean of both orientations.

Another assay concerns the target T45, 4H3920-AA.
T45 chain: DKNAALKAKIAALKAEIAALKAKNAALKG
Description: two-hybrid library CCmax. The conditions noted are these: mean of both orientations.

The target of another assay is T46, 4H3591-AA.
T46 chain: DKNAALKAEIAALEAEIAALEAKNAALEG
Description: two-hybrid library CCmax.

Another assay has as its target T47, 4H478-AA.
T47 chain: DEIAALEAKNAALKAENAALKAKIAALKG
Description: two-hybrid library CCmax. The conditions noted are these: mean of both orientations.

For a further assay, the target named is T48, 4H675-AA.
T48 chain: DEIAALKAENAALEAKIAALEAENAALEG
Description: two-hybrid library CCmax.

The target of another assay is T49, 4H497-AA.
T49 chain: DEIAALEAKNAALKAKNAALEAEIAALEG
Description: two-hybrid library CCmax. The conditions noted are these: mean of both orientations.

The next assay concerns the target T50, 4H428-AA.
T50 chain: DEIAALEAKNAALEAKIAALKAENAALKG
Description: two-hybrid library CCmax. The conditions noted are these: mean of both orientations.

The next assay concerns the target T51, 4H3666-AA.
T51 chain: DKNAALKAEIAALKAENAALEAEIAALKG
Description: two-hybrid library CCmax. The conditions noted are these: mean of both orientations.

For the next assay, the target named is T52, 4H3709-AA.
T52 chain: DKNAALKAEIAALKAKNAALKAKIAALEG
Description: two-hybrid library CCmax. The conditions noted are these: mean of both orientations.

Another assay concerns the target T53, 4H949-bH.
T53 chain: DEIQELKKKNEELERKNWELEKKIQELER
Description: two-hybrid library CCNG1.

B1: 4H2865-AA (peptide)
chain: DKIAALKAKIAALEAKNAALEAEIAALEG
For the molecule B1, the interaction score with 4H3381-AA is -0.233; with 4H2865-AA, 0.121; with 4H536-AA it was 1.01; with 4H629-AA, -0.872; in the assay with 4H3865-AA it was -1.3; with 4H3165-AA it was -1.47. The interaction score with 4H3395-AA was -1.43; with 4H485-AA, -1.28; in the assay with 4H570-AA it was 1.01; with 4H3009-AA, 2.01; in the assay with 4H3410-AA, -0.858; in the assay with 4H797-AA, -0.194. The interaction score is -1.4 in the assay with 4H3016-AA; 0.436 with 4H745-AA; -0.487 in the assay with 4H3130-AA; -0.808 with 4H909-AA; -1.8 with 4H891-AA; 0.586 with 4H850-AA. Besides, the interaction score with 4H94-AA is 1.39; in the assay with 4H3590-AA, -0.177; with 4H930-AA, -1.5; in the assay with 4H458-AA, -0.6; in the assay with 4H3120-AA it was -0.983; with 4H710-AA, -0.988. Further, the interaction score is 1.7 in the assay with 4H310-AA, -0.663 with 4H3753-AA and -1.95 in the assay with 4H3697-AA.

B2: 4H568-bH (peptide)
chain: DEIQELKKEIEELERKNWELEKKNQELKR
In the case of B2, the interaction score with 4H754-bH was 0.644; in the assay with 4H967-bH, 0.179; in the assay with 4H908-bH, 0.115; in the assay with 4H717-bH, 0.643; with 4H797-bH, -0.219; with 4H607-bH it was 0.0933. Also, the interaction score with 4H883-bH is 1; in the assay with 4H72-bH it was -1.52; with 4H953-bH, -1.24; in the assay with 4H687-bH, -0.423; with 4H568-bH it was -1.25; with 4H918-bH, -0.673.

B3: 4H3591-AA (peptide)
chain: DKNAALKAEIAALEAEIAALEAKNAALEG
B3: the interaction score in the assay with 4H656-AA is -0.984; with 4H3939-AA it was 1.03; with 4H3628-AA it was -0.555; with 4H971-AA, -1.24; with 4H391-AA, -2.02; with 4H3920-AA, 0.759. Further, the interaction score with 4H3591-AA is -1.51; with 4H478-AA, -1.53; with 4H675-AA, -1.63; with 4H497-AA it was -1.86; in the assay with 4H428-AA it was -1.03; in the assay with 4H3666-AA, -1.67. Besides, in the assay with 4H3709-AA, the interaction score was -0.696.

B4: 4H949-bH (peptide)
chain: DEIQELKKKNEELERKNWELEKKIQELER
For the molecule B4, the interaction score with 4H949-bH turned out to be 0.634.
